We go through one substance from doi:10.1101/2025.11.26.690573.

Assay [1] concerns the target biotinylated N8~CRL1 with wild type RBX1 (UniProt Q15843). Briefly: BLI; CSN and N8~CRL1 in a saturating amount of CSN5i-3; who was immobilised not given.
Assay [2] shares this target. Kind of assay: BLI; CSN and N8~CRL1 in a saturating amount of CSN5i-1a; who was immobilised not given. In general terms: BLI is a label-free optical method that tracks binding on a fibre tip over time.

In assay [1], “COP9 signalosome (CSN), eight-subunit complex, tag-free (from UniProt Q13098 1-491; P61201 1-443; Q9UNS2 1-409; Q9BT78 1-406; Q92905 1-334; Q7L5N1 1-327; Q9H9Q2 1-239; Q99627 1-209)” registered a KD with CSN5i-3 of 26 nM. In addition, the KD with CSN5i-1a in assay [2] amounted to 1.8 µM.
